The source of these data is paper PMC5269733, “RNA helicase DDX3 maintains lipid homeostasis through upregulation of the microsomal triglyceride transfer protein by interacting with HNF4 and SHP” (Scientific Reports, 2017).

The test deals with T1, HA-tagged HNF4 (hepatocyte nuclear factor 4) (UniProt P41235 1-474).
T1 sequence (looked up): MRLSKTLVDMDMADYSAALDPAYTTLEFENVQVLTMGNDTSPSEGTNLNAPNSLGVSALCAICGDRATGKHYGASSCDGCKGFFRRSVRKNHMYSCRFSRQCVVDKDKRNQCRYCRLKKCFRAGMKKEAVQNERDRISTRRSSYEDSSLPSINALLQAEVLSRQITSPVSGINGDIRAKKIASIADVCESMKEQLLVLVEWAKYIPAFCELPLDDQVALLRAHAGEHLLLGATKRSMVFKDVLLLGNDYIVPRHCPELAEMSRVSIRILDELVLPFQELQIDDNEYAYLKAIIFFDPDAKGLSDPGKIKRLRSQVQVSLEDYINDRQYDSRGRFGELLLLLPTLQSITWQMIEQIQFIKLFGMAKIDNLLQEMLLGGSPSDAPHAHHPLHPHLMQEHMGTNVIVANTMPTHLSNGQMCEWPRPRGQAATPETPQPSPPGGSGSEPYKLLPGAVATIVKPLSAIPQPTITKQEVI
Briefly: cell-based or functional assay.

B1: HA-tagged DDX3 (natural protein, UniProt O00571 1-662, looked up)
chain: MSHVAVENALGLDQQFAGLDLNSSDNQSGGSTASKGRYIPPHLRNREATKGFYDKDSSGWSSSKDKDAYSSFGSRSDSRGKSSFFSDRGSGSRGRFDDRGRSDYDGIGSRGDRSGFGKFERGGNSRWCDKSDEDDWSKPLPPSERLEQELFSGGNTGINFEKYDDIPVEATGNNCPPHIESFSDVEMGEIIMGNIELTRYTRPTPVQKHAIPIIKEKRDLMACAQTGSGKTAAFLLPILSQIYSDGPGEALRAMKENGRYGRRKQYPISLVLAPTRELAVQIYEEARKFSYRSRVRPCVVYGGADIGQQIRDLERGCHLLVATPGRLVDMMERGKIGLDFCKYLVLDEADRMLDMGFEPQIRRIVEQDTMPPKGVRHTMMFSATFPKEIQMLARDFLDEYIFLAVGRVGSTSENITQKVVWVEESDKRSFLLDLLNATGKDSLTLVFVETKKGADSLEDFLYHEGYACTSIHGDRSQRDREEALHQFRSGKSPILVATAVAARGLDISNVKHVINFDLPSDIEEYVHRIGRTGRVGNLGLATSFFNERNINITKDLLDLLVEAKQEVPSWLENMAYEHHYKGSSRGRSKSSRFSGGFGARDYRQSSGASSSSFSSSRASSSRSGGGGHGSSRGFGGGGYGGFYNSDGYGGNYNSQGVDWWGN
Regarding B1, the “luciferase activity of pGL2/MTP-Luc(-611/+87) in HuH7 cells, HA-HNF4 with increasing HA-DDX3 against HA-HNF4 alone (2.4- to 8.9-fold, DDX3 dose-dependent)” value turned out to be 8.9 fold.
